Source: patent US20230293649A1 (BIOVENTURES, published 2023)

T1: cathepsin K (Cathepsin K Drug Discovery Kit, Enzo Life Sciences) (UniProt P43235 115-329, limits assumed)
T1 construct: also called CTSK; CatK
T1 sequence (looked up): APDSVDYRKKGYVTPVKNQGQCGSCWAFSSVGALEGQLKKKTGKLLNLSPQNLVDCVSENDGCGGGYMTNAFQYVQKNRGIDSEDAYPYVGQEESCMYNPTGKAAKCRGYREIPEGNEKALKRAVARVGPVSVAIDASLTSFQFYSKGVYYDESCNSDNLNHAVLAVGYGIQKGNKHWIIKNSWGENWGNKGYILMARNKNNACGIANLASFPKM

T2: recombinant CST6 (R&D Systems, Minneapolis, MN), Q15828
T2 chain: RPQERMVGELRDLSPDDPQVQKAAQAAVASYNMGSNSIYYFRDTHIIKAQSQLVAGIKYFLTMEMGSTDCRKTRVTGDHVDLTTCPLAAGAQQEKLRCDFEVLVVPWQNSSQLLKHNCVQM

T3: E-cadherin, P12830
T3 chain: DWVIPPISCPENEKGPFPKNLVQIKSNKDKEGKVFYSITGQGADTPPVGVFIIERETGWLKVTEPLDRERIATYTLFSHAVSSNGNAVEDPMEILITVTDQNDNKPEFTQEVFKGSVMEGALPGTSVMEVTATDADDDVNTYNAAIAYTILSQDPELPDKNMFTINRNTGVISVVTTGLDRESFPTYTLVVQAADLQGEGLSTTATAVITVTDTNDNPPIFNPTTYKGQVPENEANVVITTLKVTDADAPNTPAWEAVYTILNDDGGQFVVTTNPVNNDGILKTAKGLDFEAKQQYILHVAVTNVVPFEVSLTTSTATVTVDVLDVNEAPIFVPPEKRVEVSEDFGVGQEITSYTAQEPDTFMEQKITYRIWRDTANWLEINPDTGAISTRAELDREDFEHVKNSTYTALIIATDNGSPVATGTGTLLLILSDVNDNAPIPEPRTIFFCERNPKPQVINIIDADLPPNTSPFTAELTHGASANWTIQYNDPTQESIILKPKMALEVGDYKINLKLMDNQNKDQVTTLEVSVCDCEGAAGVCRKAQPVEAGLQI

T4: N-cadherin, P19022
T4 chain: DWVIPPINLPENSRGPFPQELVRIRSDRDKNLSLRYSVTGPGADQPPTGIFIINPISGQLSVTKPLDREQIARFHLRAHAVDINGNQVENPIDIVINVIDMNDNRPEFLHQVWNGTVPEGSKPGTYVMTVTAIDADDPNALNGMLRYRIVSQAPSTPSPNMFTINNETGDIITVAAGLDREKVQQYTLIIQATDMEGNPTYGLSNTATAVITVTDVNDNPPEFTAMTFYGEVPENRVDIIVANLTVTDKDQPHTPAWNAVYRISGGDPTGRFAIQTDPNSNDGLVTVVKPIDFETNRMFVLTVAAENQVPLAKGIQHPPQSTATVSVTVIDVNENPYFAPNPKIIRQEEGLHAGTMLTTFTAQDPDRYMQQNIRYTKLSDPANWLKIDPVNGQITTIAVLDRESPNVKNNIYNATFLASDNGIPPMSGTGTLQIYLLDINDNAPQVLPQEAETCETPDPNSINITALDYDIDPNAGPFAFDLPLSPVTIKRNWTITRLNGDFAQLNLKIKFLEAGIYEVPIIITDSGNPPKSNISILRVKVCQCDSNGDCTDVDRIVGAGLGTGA


How the values were obtained:
[1] = molecular target: T1, cathepsin K (Cathepsin K Drug Discovery …); assay: inhibition of cathepsin K cleavage of the fluorogenic substrate Z-Phe-Arg-AMC; non-linear regression of initial rates
Protocol: The ability of recombinant CST6 (R&D Systems, Minneapolis, MN) to inhibit cathepsin K protease activity was assessed using the Cathepsin K Drug Discovery Kit (Enzo Life Sciences International, Plymouth Meeting, PA). Fluorimetric assays were done in triplicate in 96-well microtitre plates using cathepsin K, the fluorogenic synthetic substrate Z-Phe-Arg-AMC in the presence of the cathepsin K assay buffer. Inhibitory activity of CST6 towards cathepsin K was measured in serum-free conditioned media from the H929 cell line stably infected with pWPI or CST6 lentivirus. Conditioned media equating to 25 μg was added to each well and inhibitory activity was evaluated by measuring the residual enzyme activity. Recombinant CST6 was added to assays at various concentrations and the resultant fluorescence was measured using a SpectraMax M2 microplate reader (Molecular Devices, Sunnyvale, CA) with excitation at 380 nm and emission at 460 nm wavelengths. The initial rates from the CatK progress curves in the presence of predetermined concentrations of recombinant CST6 were subjected to non-linear regression analysis (Morrison and Walsh, 1988) using GraFit® software (Erithacus Software Limited, Surrey, UK) to determine the inhibition constant (Ki).

[2] = molecular target: T2, recombinant CST6 (R&D Systems, …)
E-cadherin, P12830 = molecular target: T3, E-cadherin, P12830
N-cadherin, P19022 = molecular target: T4, N-cadherin, P19022

Binder	Ki [1] [nM]	cleavage of E- and N-cadherin by cathepsin K (in vitro assay) [2]	cleavage of E-cadherin (in vitro assay) (E-cadherin, P12830)	cleavage of N-cadherin (in vitro assay) (N-cadherin, P19022)
recombinant CST6 (R&D Systems, Minneapolis, MN) (other, UniProt Q15828 29-149, looked up, also called recombinant cystatin E/M; cystatin M/E) RPQERMVGELRDLSPDDPQVQKAAQAAVASYNMGSNSIYYFRDTHIIKAQSQLVAGIKYFLTMEMGSTDCRKTRVTGDHVDLTTCPLAAGAQQEKLRCDFEVLVVPWQNSSQLLKHNCVQM	3.84			
cathepsin K (Cathepsin K Drug Discovery Kit, Enzo Life Sciences) (protein) APDSVDYRKKGYVTPVKNQGQCGSCWAFSSVGALEGQLKKKTGKLLNLSPQNLVDCVSENDGCGGGYMTNAFQYVQKNRGIDSEDAYPYVGQEESCMYNPTGKAAKCRGYREIPEGNEKALKRAVARVGPVSVAIDASLTSFQFYSKGVYYDESCNSDNLNHAVLAVGYGIQKGNKHWIIKNSWGENWGNKGYILMARNKNNACGIANLASFPKM		the addition of recombinant Cst6 can inhibit this cleavage	cathepsin K can cleave E- and N-cadherin using an in vitro assay	cathepsin K can cleave E- and N-cadherin using an in vitro assay
